Test system: Escherichia coli TOP10
Assay: shrunken log2 fold change of peptide-encoding DNA abundance (4.5 h post-induction vs induction); higher = less antimicrobial activity (less host growth inhibition)
Details: time post-induction: 4.5 h; library: site-saturation at positions 5, 18, 19, 20
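Further: peptides expressed intracellularly from a pBAD plasmid library in pooled LB shake-flask culture, induced with 0.3% L-arabinose, DNA abundance read by NGS, three biological replicates, DESeq2 with apeglm shrinkage.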

Row | Sequence | shrunken log2 fold change
1 | RRIRMRPPRLPRPRPRPYGKPRP | -0.0311
2 | RRIRRRPPRLPRPRPRPTNMPRP | -0.0659
3 | RRIRFRPPRLPRPRPRPVYDPRP | -0.977
4 | RRIRNRPPRLPRPRPRPEDMPRP | -0.0541
5 | RRIRSRPPRLPRPRPRPMHLPRP | -0.118
6 | RRIRDRPPRLPRPRPRPNKFPRP | -0.293
7 | RRIRHRPPRLPRPRPRPSTSPRP | -0.478
8 | RRIRGRPPRLPRPRPRPWGLPRP | 0.0474
9 | RRIRERPPRLPRPRPRPDQEPRP | -0.0156
10 | RRIRVRPPRLPRPRPRPICQPRP | -0.188
11 | RRIRGRPPRLPRPRPRPNKQPRP | 0.326
12 | RRIRSRPPRLPRPRPRPTMPPRP | 0.0349
13 | RRIRYRPPRLPRPRPRPNKRPRP | -0.75
14 | RRIRHRPPRLPRPRPRPLEKPRP | -0.1
15 | RRIRGRPPRLPRPRPRPVNYPRP | 0.203
16 | RRIRQRPPRLPRPRPRPCHWPRP | 0.018
17 | RRIRRRPPRLPRPRPRPEMCPRP | 0.11
18 | RRIRRRPPRLPRPRPRPDIYPRP | 0.0543
19 | RRIRIRPPRLPRPRPRPFLCPRP | -0.628
20 | RRIRNRPPRLPRPRPRPKMLPRP | -0.043
21 | RRIRARPPRLPRPRPRPNKGPRP | -0.0254
22 | RRIRPRPPRLPRPRPRPNWMPRP | 0.0917
23 | RRIRFRPPRLPRPRPRPYKIPRP | -0.462
24 | RRIRERPPRLPRPRPRPWFYPRP | -0.985
25 | RRIRERPPRLPRPRPRPKSAPRP | 0.116

Row | Sequence | shrunken log2 fold change
26 | RRIRHRPPRLPRPRPRPVQPPRP | -0.0332
27 | RRIRWRPPRLPRPRPRPPTEPRP | 0.597
28 | RRIRWRPPRLPRPRPRPQRTPRP | -0.0113
29 | RRIRKRPPRLPRPRPRPGCIPRP | 0.424
30 | RRIRKRPPRLPRPRPRPLDGPRP | 0.105
31 | RRIRVRPPRLPRPRPRPDKAPRP | -0.0129
32 | RRIRVRPPRLPRPRPRPSEDPRP | 0.376
33 | RRIRYRPPRLPRPRPRPWHAPRP | -0.25
34 | RRIRGRPPRLPRPRPRPRFQPRP | 0.158
35 | RRIRMRPPRLPRPRPRPATWPRP | 0.515
36 | RRIRWRPPRLPRPRPRPTWSPRP | 0.541
37 | RRIRNRPPRLPRPRPRPLTLPRP | -0.358
38 | RRIRTRPPRLPRPRPRPVNEPRP | -0.103
39 | RRIRGRPPRLPRPRPRPMCTPRP | 2.37
40 | RRIRLRPPRLPRPRPRPHKIPRP | -0.0592
41 | RRIRPRPPRLPRPRPRPIEFPRP | -0.114
42 | RRIRVRPPRLPRPRPRPKVTPRP | 0.0458
43 | RRIRVRPPRLPRPRPRPAWYPRP | 0.0171
44 | RRIRWRPPRLPRPRPRPFSKPRP | -0.0531
45 | RRIRCRPPRLPRPRPRPPRDPRP | 0.84
46 | RRIRQRPPRLPRPRPRPWYFPRP | -0.289
47 | RRIRMRPPRLPRPRPRPDGGPRP | 0.135
48 | RRIRGRPPRLPRPRPRPKFMPRP | 0.316
49 | RRIRDRPPRLPRPRPRPGTMPRP | -0.302
50 | RRIRHRPPRLPRPRPRPFYVPRP | 2.94

Row | Sequence | shrunken log2 fold change
51 | RRIRKRPPRLPRPRPRPLQWPRP | 0.0701
52 | RRIRNRPPRLPRPRPRPVIHPRP | -0.0797
53 | RRIRQRPPRLPRPRPRPISMPRP | 0.0161
54 | RRIRNRPPRLPRPRPRPMNIPRP | -0.24
55 | RRIRRRPPRLPRPRPRPAGSPRP | 0.384
56 | RRIRARPPRLPRPRPRPDNHPRP | -0.0167
57 | RRIRARPPRLPRPRPRPRHLPRP | 0.11
58 | RRIRCRPPRLPRPRPRPCDNPRP | -0.0831
59 | RRIRKRPPRLPRPRPRPYCWPRP | -0.315
60 | RRIRERPPRLPRPRPRPAWPPRP | 0.359
61 | RRIRERPPRLPRPRPRPIERPRP | 0.00274
62 | RRIRQRPPRLPRPRPRPRHHPRP | 0.0815
63 | RRIRSRPPRLPRPRPRPDHAPRP | 0.0838
64 | RRIRCRPPRLPRPRPRPFDMPRP | -0.309
65 | RRIRHRPPRLPRPRPRPFEAPRP | -0.214
66 | RRIRWRPPRLPRPRPRPITEPRP | -0.355
67 | RRIRKRPPRLPRPRPRPVLIPRP | -0.141
68 | RRIRSRPPRLPRPRPRPCCDPRP | -0.284
69 | RRIRMRPPRLPRPRPRPSRGPRP | 0.732
70 | RRIRSRPPRLPRPRPRPGHKPRP | -0.112
71 | RRIRYRPPRLPRPRPRPHNHPRP | -1.01
72 | RRIRMRPPRLPRPRPRPAYTPRP | -0.0493
73 | RRIRTRPPRLPRPRPRPCWKPRP | -0.0202
74 | RRIRCRPPRLPRPRPRPKNAPRP | -0.103
75 | RRIRERPPRLPRPRPRPQSKPRP | -0.769

Reference: the supplement of paper PMC9112550, “Optimization of the antimicrobial peptide Bac7 by deep mutational scanning” (BMC Biology, 2022)
